Results reported in patent US20110123447A1 (UNIVERSITY OF ZURICH, published 2011).
Where “and” joins values, the source holds several entries; their conditions need not be identical. Identical values can stand only once.

Legend:
NY-ESO-1 11-30 peptide [1] = target: T1, NY-ESO-1 11-30 peptide (human); assay: saturation ELISA on coated NY-ESO-1 11-30 peptide
T1 construct: also called peptide spanning amino acids 11 to 30 of NY-ESO-1
T1 peptide: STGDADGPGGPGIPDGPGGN

[2] = target: T2, NY-ESO-1 as expressed in NY-ESO-1-positive mamma carcinoma tissue sections and in the cell line SK-MEL-37 (human, UniProt P78358 1-180); assay: immunohistochemistry on NY-ESO-1-positive tissue sections
T2 construct: whole, on cells; The antigen is intracellular; It was detected in fixed sections or permeabilised cells, not on the cell surface; also called NY-ESO-1-positive tissue; NY-ESO-1-positive cell line SK-MEL-37
Procedure: Immunohistochemistry was performed on formalin-fixed, paraffin-embedded tissue. Heat-based antigen retrieval was applied to all slides. Non-specific fluorescence was blocked using polyclonal rabbit anti-human IgG (Dako, Baar, Switzerland) for 30 min at room temperature followed by a second block in 1% of low fat milk (Rapilait, Migros, Switzerland) for 10 min. Primary antibody or B cell conditioned medium was incubated overnight at 4° C. […] As positive control for the presence of NY-ESO-1 antigen a mouse anti-NY-ESO-1 monoclonal antibody (Zymed, South San Francisco, USA) was used.

[3] = target: T3, full length recombinant NY-ESO-1 protein (human, UniProt P78358 1-180); assay: ELISA on coated recombinant NY-ESO-1, supernatant of transfected 293 HEK cells
T3 construct: mature; The form was set to 'mature' to stand for full length

NY-ESO-1 11-30 peptide [4] = target: T1, NY-ESO-1 11-30 peptide; assay: competition ELISA: soluble NY-ESO-1 11-30 peptide against plate bound peptide
Procedure: The avidity of Manhattan was determined by competition ELISA using increasing concentrations of soluble NY-ESO-1₁₁₋₃₀ peptide to compete for the plate bound peptide. As depicted in FIG. 3C, the antigen-binding equilibrium dissociation constant (KD) of the interaction of Manhattan with its cognate peptide was in the lower nanomolar range.

[5] = target: T4, NY-ESO-1 peptide spanning amino acids 21-40 (human, UniProt P78358 21-40); assay: epitope mapping ELISA on coated overlapping peptides
T4 construct: range 21-40; also called adjacent peptide 21-40
T4 peptide (looked up): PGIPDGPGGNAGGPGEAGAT
Procedure: (§1) 20mer peptides spanning the entire NY-ESO-1 protein with 10 aa overlaps shared by each adjacent peptides (Peptides&Elephants, Nuthetal, Germany) were used to coat Maxisorp ELISA plates (Nunc, Rochester, N.Y.). Human recombinant antibody Manhattan or patient serum (diluted 1:500 in PBS) was detected using horseradish peroxidase-conjugated Goat anti-human IgG+IgM (Jackson ImmunoResearch).
(§2) To identify the epitope recognized by Manhattan on NY-ESO-1 ELISA was performed using overlapping peptides spanning the complete NY-ESO-1 protein. […] This epitope, among others was also recognized by antibodies contained in serum of patient C1 (FIG. 3B).

[6] = target: T5, NY-ESO-1 peptide spanning amino acids 1-20 (human, UniProt P78358 1-20); assay: as above
T5 construct: range 1-20; also called adjacent peptide 1-20
T5 peptide (looked up): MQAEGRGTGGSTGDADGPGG
Procedure: as §1, §2

EC50 (NY-ESO-1 11-30 peptide [1]): 1 nM and 0.15 µg/mL
binding result [2]: binds
binding result [3]: binds
Kd (NY-ESO-1 11-30 peptide [4]): 0.1 nM
binding result [5]: no binding
binding result [6]: no binding
B1: human monoclonal antibody Manhattan (recombinant human antibody 12D7 clone No. 4) (antibody, human IgG1, V domains shown)
VH: QVQLVQSGGGVVRPGGSLRLSCAASGFSFIDYGMSWVRQVPGKGLEWVAGMNWSGDKKGHAESVKGRFIISRDNAKNTLYLEMSSLRVEDTALYFCARGEYSNRFDPRGRGTLVTVSS
VL: DIVMTQTPLSLPVTLGQPASLSCRSSQSLVFTDGNTYLNWFQQRPGQSPRRLIYKVSSRDPGVPDRFSGTGSGTDFTLEISRVEAEDIGVYYCMQGTHWPPIFGQGTKVEIK
notes: They were cloned into vectors with the constant regions of human IgG1 heavy chain and human kappa light chain and expressed in 293 HEK cells; also called 12D7 clone number 4; 12D7.4
